Blank lines part the entries; values can stand above or below the binder they belong to.
B5: CASK-CaMK (residues 1-337) (domain or fragment)
chain: MADDDVLFEDVYELCEVIGKGPFSVVRRCINRETGQQFAVKIVDVAKFTSSPGLSTEDLKREASICHMLKHPHIVELLETYSSDGMLYMVFEFMDGADLCFEIVKRADAGFVYSEAVASHYMRQILEALRYCHDNNIIHRDVKPHCVLLASKENSAPVKLGGFGVAIQLGESGLVAGGRVGTPHFMAPEVVKREPYGKPVDVWGCGVILFILLSGCLPFYGTKERLFEGIIKGKYKMNPRQWSHISESAKDLVRRMLMLDPAERITVYEALNHPWLKERDRYAYKIHLPETVEQLRKFNARRKLKGAVLAAVSSHKFNSFYGDPPEELPDFSEDPTS

Tests used:
[1] = target: T1, CASK-CaMK (residues 1-337) (UniProt Q62915 1-337); assay: ITC; MicroCalorimeter ITC200, 25 °C; Mint1 fragments and mutants injected into CASK-CaMK in the cell; repeated three times; conditions: both partners purified
T1 construct: CaMK domain of CASK, residues 1-337; also called CASK(residues 1-337); source: E. coli BL21 (DE3), purified (Ni2+-Sepharose, size-exclusion chromatography); not shown: Trx, N-terminal, cleaved; His6, N-terminal, cleaved
T1 sequence (looked up): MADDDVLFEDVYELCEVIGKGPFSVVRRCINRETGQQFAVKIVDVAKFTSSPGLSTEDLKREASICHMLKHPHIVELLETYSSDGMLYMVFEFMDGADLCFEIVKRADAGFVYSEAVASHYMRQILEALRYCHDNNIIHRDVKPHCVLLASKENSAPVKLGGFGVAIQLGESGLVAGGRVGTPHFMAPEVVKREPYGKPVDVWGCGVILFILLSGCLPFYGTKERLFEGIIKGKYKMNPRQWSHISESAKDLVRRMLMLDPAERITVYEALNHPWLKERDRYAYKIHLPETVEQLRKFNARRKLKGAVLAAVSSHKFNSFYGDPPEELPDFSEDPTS

[2] = target: B5; assay: ITC
[3] = target: T2, CASK-CaMK (residues 1-301) (UniProt Q62915 1-301); assay: ITC
T2 chain: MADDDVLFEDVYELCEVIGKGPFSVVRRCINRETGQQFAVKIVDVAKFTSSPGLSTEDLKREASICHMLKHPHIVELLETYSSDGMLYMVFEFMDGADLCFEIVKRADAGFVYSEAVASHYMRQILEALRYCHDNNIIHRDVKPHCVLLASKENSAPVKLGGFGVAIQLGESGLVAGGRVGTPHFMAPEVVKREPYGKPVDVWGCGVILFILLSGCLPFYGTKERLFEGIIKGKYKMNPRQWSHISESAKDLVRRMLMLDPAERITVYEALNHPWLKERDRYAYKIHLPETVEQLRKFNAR

[4] = target: T3, CASK-CaMK (residues 1-319) (UniProt Q62915 1-319); assay: ITC
T3 chain: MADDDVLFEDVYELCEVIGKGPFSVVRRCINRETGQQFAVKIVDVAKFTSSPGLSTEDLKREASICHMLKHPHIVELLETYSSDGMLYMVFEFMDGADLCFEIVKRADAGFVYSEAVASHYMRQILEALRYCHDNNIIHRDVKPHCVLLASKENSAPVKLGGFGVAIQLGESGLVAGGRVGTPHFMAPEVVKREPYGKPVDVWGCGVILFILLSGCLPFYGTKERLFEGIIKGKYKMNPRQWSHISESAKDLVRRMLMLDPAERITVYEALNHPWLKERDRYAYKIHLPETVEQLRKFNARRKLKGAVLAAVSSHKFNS

[5] = target: T4, Mint1-CID (residues 338-397) I352A I355A I359A (UniProt O35430 338-397, I352A | I355A | I359A); assay: ITC
T4 sequence: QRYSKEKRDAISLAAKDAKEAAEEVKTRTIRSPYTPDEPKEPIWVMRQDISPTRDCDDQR

B1: Mint1-CID (residues 338-397) (domain or fragment, UniProt O35430 338-397, looked up)
chain: QRYSKEKRDAISLAIKDIKEAIEEVKTRTIRSPYTPDEPKEPIWVMRQDISPTRDCDDQR
notes: also called the entire CID; the whole CID; source: E. coli BL21 (DE3), purified (Ni2+-Sepharose, size-exclusion chromatography); not shown: Trx, N-terminal, cleaved; His6, N-terminal, cleaved
- Kd [1]: ~20 nM
- Kd [2]: 17 nM
- Kd [3]: 42 nM
- Kd [4]: 30 nM

Binder: B5
- Kd [5]: 270 nM

Continued, values first:

- fold reduction of the binding affinity against the wild-type CID [1]: ~15 fold
B2: Mint1-CID (residues 338-397) I352A I355A I359A (domain or fragment, UniProt O35430 338-397, looked up)
chain: QRYSKEKRDAISLAAKDAKEAAEEVKTRTIRSPYTPDEPKEPIWVMRQDISPTRDCDDQR
notes: Mint1-CID residues 338-397 with I352A, I355A and I359A; Probably made as the wild-type fragment (E. coli, Trx-His6 tag removed); also called the mutations in the N-CID; source: recombinant protein

- Kd [1]: ~55000 nM
B3: Mint1-CID (residues 338-397) W381A (domain or fragment, UniProt O35430 338-397, looked up)
chain: QRYSKEKRDAISLAIKDIKEAIEEVKTRTIRSPYTPDEPKEPIAVMRQDISPTRDCDDQR
notes: Mint1-CID residues 338-397 with W381A; Probably made as the wild-type fragment (E. coli, Trx-His6 tag removed); also called the C-CID W381A mutation; source: recombinant protein

- Kd [1]: ~500 nM
B4: Mint1-C-CID (residues 371-397) (domain or fragment, UniProt O35430 371-397, looked up)
chain: YTPDEPKEPIWVMRQDISPTRDCDDQR
notes: C-terminal half of the CID of Mint1, residues 371-397; source: E. coli BL21 (DE3), purified (Ni2+-Sepharose, size-exclusion chromatography); not shown: Trx, N-terminal, cleaved; His6, N-terminal, cleaved

From publication PMC7736295 (Cell Discovery, 2020)
